Test system: MS2 coat protein
Assay: apparent KD of MS2 coat protein; higher = weaker reporter binding
Details: Eterna round: R107
Procedure, shortened: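 SNAP-549-labelled MS2 coat protein was titrated onto designed RNA switches that had been transcribed on-chip from Illumina sequencing clusters. Amounts doubled from 0.7 or 1.5 nM to 3 µM in 100 mM Tris-HCl pH 7.5, 80 mM KCl, 4 mM MgCl2, with constant ligand or without. Apparent KD is the median per design of normalised cluster binding-curve fits.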

[1] = input ligand: theophylline 20 uM
[2] = input ligand: theophylline 2 mM
[3] = input ligand: tryptophan 2.4 mM

| Sequence | apparent KD of MS2 coat protein (input ligand: arginine 13.2 mM) | apparent KD of MS2 coat protein (input ligand: none) | apparent KD of MS2 coat protein [1] | apparent KD of MS2 coat protein [2] | apparent KD of MS2 coat protein [3] |
| --- | --- | --- | --- | --- | --- |
| GGUGGCGGGACUGAUACCAGCCACCACCGAUAGACCACAUGAGGAUCACCCAUGUUGGGUGGCCCUUGGCAGCAGUCUUGCUGCC [#1 Same State - Theophylline B Attempt #12 (HarryS)] | 24.2 nM | 206 nM | 432 nM | 1880 nM | 907 nM |
| UUACCGUAAGGUAUACCGGUCUACAAUAAUCGAGGACCGGUACGGCCGCCACUCGAUGUGUAAUCACAUGAGGAUCACCCAUGUA [Tryptophan A 19] | 21.1 nM | – | 27.7 nM | 27.4 nM | – |
| GGGCCCGUAAGCAGGCCCACAGCGGGUGAUACCAGCAAUAAAACUUGCCCUUGGCAGCACACAGCUACAUGAGGAUCACCCAUGU [Mausdi] | 24.3 nM | – | 59.3 nM | – | 88.6 nM |
| UUUUUCGUAGGUUAUAGUUUAGAAACUGAAGGAGCGUGGUAAUACACAGGUAGGUCGCAGAUUUUACAUGAGGAUCACCCAUGUU [JR_ExcArginiA_Sub013] | 23.5 nM | 24.1 nM | 27.6 nM | 25.1 nM | 22.7 nM |
| UCGCCCAGGAAGGAUUCCUGGGAUAUGGAAGGAGCGCUGAUGCCAGCAGGUAGGUCGCCAACGGACAUGAGGAUCACCCAUGUAC [Same State - Arginine A (Freestyle 8)] | 14.5 nM | 19.9 nM | 22.7 nM | 26.6 nM | 21.2 nM |
| GAGAGAGGAGUGCGGCGUGUUCCGCUCCGUCGAGGACCGGUACGGCCGCCACUCGACAUGAGGAUCACCCAUGUCCUCUCUCGCG [#1 Exclusion - Tryptophan A Attempt #4 (HarryS)] | 16.8 nM | – | 102 nM | 42.1 nM | – |
| GACCGAUUAUAGCACGAUUGUCUUGUGGAAGGAGCGCAGAGGGCUGCAGGUAGGUCGCCACAUGAGGAUCACCCAUGUCAGGAUA [Raanti] | 4.57 nM | 60 nM | 66.6 nM | 59.1 nM | 46.6 nM |
| CACAUGAGGAUCACCCAUGUCUGAACUGAAGGAGCGCUAAACAAGGCAGGUAGGUCGCGGAAUUUUGUGUGCAUAUGCACAUGGG [9.O] | 19.7 nM | 28.2 nM | 22.3 nM | 24.6 nM | 25.8 nM |
| AUGUCACAUGAGGAUCACCCAUGUAUGGAUACCAGUUUAGUGAAUAACCCUUGGCAGCCAAGGAUGCGACAGAAAUCCGGAAAAC [theeternabot_sameState_MS2_Theo_A_22] | 19 nM | – | 26.6 nM | – | 20.5 nM |
| UUCAGCUAGUCGGCCGCCACUACUUGAGGAUCACCCAGGUAGGUCCACACUGCUUCGGCAGUGAGUAGGACCGGGACUAGCUGAG | 31 nM | 32.8 nM | 32.2 nM | 39.4 nM | 272 nM |
| AGUCUGGACUCGGCCGCCACUCGUGAUGCUUUGGCACAUGAGGAUCACCCAUGUGGUCGGCCUUAGAGGACCGGGAGUACCAGUC [Ariaredle] | 52.3 nM | – | 84.9 nM | 63.5 nM | – |
| CGAUCCUGCAGGGAUACCAGCGCCGCUUGAUAACUGUGCACAUGAGGAUCACCCAUGUAGCGCCCUUGGCAGCCCAGCUAGAGGG [Same State Theophylline B GF25] | 12.9 nM | 15 nM | 29.2 nM | 13.9 nM | 14.7 nM |
| AGCCCUGUACUAGAUACCAGCUACAUGAGGAUCACCCAUGUGCGUCAAGACUGACUGUGUAGCCCUUGGCAGCUGCUCGCAUGUA [Exclusion - Theophylline B (Freestyle 2)] | 19.7 nM | – | 29.9 nM | – | 20.9 nM |
| UAUAUAUAUCACUAACUGUUGUGGACGUCUCGAGGACCGGUACGGCCGCCACUCGGGCGGCCUCACAUGAGGAUCACCCAUGUCC [XTryp A #4] | 92.9 nM | – | 192 nM | 149 nM | – |
| ACAUGAGGAUCACCCAUGUACAUGAGGGAAGGAGCGGUACAUGUGCCAGGUAGGUCGCCCAACAGCAUCAGCCAUGUACAACAGG [zqwmullin] | 41.3 nM | 162 nM | 72.6 nM | 79.2 nM | 61 nM |
| AUCGUACCUGAUGAUACCAGCAUGUGAUCAUAACAUGAGGAUCACCCAUGUAAUCAGUGAUGCCCUUGGCAGCAUGAUCGGUACA [Same State - Theophylline B (Freestyle 13)] | 45.5 nM | – | 79.6 nM | – | 56.7 nM |
| UCCACAUGAGGAUCACCCAUGUAAUCAGAUACCAGUGACGAAAGUCACCCUUGGCAGCUGAUUACUUUAGUUCGAGGGUGUUUGA [EThA NP+V+V2 #4 Same Structure] | 84.5 nM | – | 148 nM | – | 79.5 nM |
| GUACGAGUUGACUGUGAGACUGGCGUGGAAGGAGCGCACGGAGGUGCAGGUAGGUCGCCACAUGAGGAUCACCCAUGUCGGGCCG [Qutigeveat] | 19.3 nM | 26.4 nM | 31.6 nM | 40.1 nM | 26.7 nM |
| UUCUUUAAGUCGGCCGCCACUGAAACAUGAGGAUCACCCAUGUAUAUUUGUGUAUAGGUGGAUUACAGGACCGGGACUAUAGUAA [JR_ExcTryptoB_Sub023] | 15.1 nM | 14.7 nM | 20.2 nM | 15.2 nM | 14.7 nM |
| AGAGUCAGACAAAAGUCUGGCUCAACCGAAGGAGCGUCCGAAAGGACAGGUAGGUCGCGGUUACCUGAGGAUCACCCGGGUUCCU [ArgAS 9 #OpenEnded #AlternativeMS2] | 100 nM | 65 nM | 110 nM | 1040 nM | 659 nM |
| UAUACAUGAGGAUCACCCAUGUGCCAUGAUACCAGACAUGAAAAUGUCCCUUGGCAGCAUGGGAAAUGUAUAGCGGGAAACCCGA [Slatina] | 52.7 nM | – | 201 nM | – | 60.8 nM |
